Source: article PMC10532153, “Interactions of the N- and C-Terminal SH3 Domains of Drosophila Drk with the Proline-Rich Peptides from Sos and Dos” (International Journal of Molecular Sciences, 2023)

Legend:
[1] = biological target: T1, C-terminal SH3 domain of Drosophila Drk (Drk-CSH3) (Drosophila, UniProt Q08012 153-211); assay: NMR titration; 2D 1H-15N HSQC of 15N-labelled Drk-CSH3 (0.3 mM), peptide added stepwise up to protein:peptide 1:8; NMR buffer (20 mM KH2PO4/K2HPO4 pH 7.4, 100 mM KCl, 1 mM DTT, 0.05% NaN3); 25 °C; CSPs fitted to a single-binding model, bootstrap 1000 iterations; conditions: both partners purified
T1 construct: Downstream receptor kinase (Drk), Drosophila homologue of GRB2, 211 residues; C-terminal SH3 domain; the solution structure PDB 7Y4N is of this domain

[2] = biological target: T2, N-terminal SH3 domain of Drosophila Drk (Drk-NSH3) (Drosophila, UniProt Q08012 1-59); assay: NMR titration; 2D 1H-15N HSQC of 15N-labelled Drk-NSH3 (0.3 mM), peptide added stepwise up to protein:peptide 1:8; 20 mM KH2PO4/K2HPO4 pH 7.4, 100 mM KCl, 1 mM DTT, 0.05% NaN3, 10% D2O; 25 °C; CSPs fitted to a conformational selection model (Kd and Kf), bootstrap 1000 iterations; conditions: both partners purified
T2 construct: Downstream receptor kinase (Drk), Drosophila homologue of GRB2, 211 residues; N-terminal SH3 domain, residues 1-59; Isolated domain is in equilibrium between a folded and an unfolded state; source: E. coli BL21 (DE3) star, pET-3a, uniformly 15N-labelled, purified (DEAE sepharose, Superdex 75, Resource Q)
T2 sequence (Q08012 1-59): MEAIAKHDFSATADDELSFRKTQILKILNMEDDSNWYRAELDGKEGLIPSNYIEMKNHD

T1 sequence (Q08012 153-211): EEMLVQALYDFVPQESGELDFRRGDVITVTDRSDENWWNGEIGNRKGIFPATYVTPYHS

B1: Dos-S2 peptide (Daughter of Sevenless residues 690-702) (peptide)
peptide: GPPSVDRKCKPNA
notes: Daughter of Sevenless (Dos), Drosophila, proline-rich motif PxxxRxxKP in the C-terminal unstructured region, residues 690-702; Thirteen residues; the nine-residue peptide of the earlier study extended by two residues at each end; also called "longer" Dos-S2; source: synthetic peptide, bought: Eurofins Genomics
Kd [1]: 250 ± 21.5 µM | Kd [2]: 242 ± 11.6 µM
